The target in experiment [1] is T1, human GITR, membrane bound (on activated human T cells or on 3A9-hGITR cells) (human, UniProt Q9Y5U5 26-241).
T1 sequence: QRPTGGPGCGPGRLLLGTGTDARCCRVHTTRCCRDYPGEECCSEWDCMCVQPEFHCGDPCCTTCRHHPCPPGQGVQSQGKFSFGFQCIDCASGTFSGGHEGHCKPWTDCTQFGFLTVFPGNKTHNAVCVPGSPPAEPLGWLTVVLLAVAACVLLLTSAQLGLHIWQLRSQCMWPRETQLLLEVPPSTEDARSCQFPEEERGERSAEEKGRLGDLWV
The experiment is described as follows: cell-based or functional assay.

The target in experiment [2] is T2, cynomolgus GITR, membrane bound (on activated cynomolgus T cells) (cynomolgus monkey, UniProt Q9Y5U5 26-241 (human entry)).
T2 construct: also called cyno GITR
T2 chain: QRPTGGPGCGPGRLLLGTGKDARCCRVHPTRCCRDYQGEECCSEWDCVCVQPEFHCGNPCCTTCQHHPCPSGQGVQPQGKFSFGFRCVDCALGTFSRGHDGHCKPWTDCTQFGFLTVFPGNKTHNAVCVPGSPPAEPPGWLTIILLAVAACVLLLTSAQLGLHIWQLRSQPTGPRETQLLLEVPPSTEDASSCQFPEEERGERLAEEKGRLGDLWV
The experiment is described as follows: FACS on activated cynomolgus T cells. Here is the method:
(§1) Peripheral Blood Mononuclear Cells (PBMCs) isolated from human or cynomolgus monkey were activated with plate-coated anti-CD3 antibody (Clone: UCHT1 for human T cell activation; Clone: SP34 for cynomolgus T cell activation; both from BD Biosciences) and soluble anti-CD28 antibody (Clone:CD28.2 for both human and cynomolgus monkey, BD Biosciences) for 4 days (human)/or 5 days (cynomolgus monkey). The cells were tested for GITR mAb binding in a fluorescence-activated cell sorting (FACS)-based assay using a phycoerythrin (PE)-conjugated anti-human IgG antibody (Jackson ImmunoResearch). The samples were analyzed on a BD FACS Canto Flow Cytometer.

In experiment [3] the target is T3, mouse GITR (mouse, UniProt O35714 20-228).
T3 construct: whole, on cells; also called muGITR
T3 sequence (looked up): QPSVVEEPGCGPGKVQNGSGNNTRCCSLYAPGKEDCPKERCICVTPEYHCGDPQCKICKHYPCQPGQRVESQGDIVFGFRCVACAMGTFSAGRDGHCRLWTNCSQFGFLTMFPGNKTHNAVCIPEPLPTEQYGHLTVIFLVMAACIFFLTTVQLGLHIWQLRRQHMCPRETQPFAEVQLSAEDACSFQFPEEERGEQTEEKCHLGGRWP
The experiment is described as follows: stated in the Treg suppression assay with huGITR KI and wildtype mouse T cells. An excerpt:
From the previous experiment it was not clear whether the increased Teff proliferation was due to the anti-GITR antibodies acting on Treg and/or Teff cells. To address this question, human GITR “knock-in” (huGITR KI) mice were used. In these mice, the gene encoding mouse GITR, Tnfrsf18, was replaced with the human TNFRSF18 gene, and human GITR is expressed similarly to muGITR in wildtype mice; human GITR is expressed on both Teff and Treg cells with higher levels on the latter.
Treg and Teff cells were sorted based on CD4 and CD25 expression from huGITR KI and WT mice.

Experiment [4] has as its target T1, human GITR, membrane bound (on …). Description: FACS on activated human T cells. Here is the method: as §1
In experiment [5] the target is T4, recombinant human GITR/Fc (rHGITR/Fc, R&D systems CAT #689-GR) (human, UniProt Q9Y5U5 26-161, limits assumed).
T4 construct: Bought; also called soluble GITR
T4 chain: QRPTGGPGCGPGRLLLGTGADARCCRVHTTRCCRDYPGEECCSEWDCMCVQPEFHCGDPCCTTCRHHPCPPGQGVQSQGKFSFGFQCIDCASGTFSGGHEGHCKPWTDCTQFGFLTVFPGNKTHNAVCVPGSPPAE
The experiment is described as follows: SPR; mAb captured (anti-kappa), rHGITR/Fc analyte. Here is the method:
Binding of anti-GITR antibodies to soluble GITR was determined by Biacore. […] The capture concentration of the mAb/volume was 2-40 μg/mL (5 μL at 10 μL/min). The antigen association time was 5 minutes at 15 μL/min, the antigen dissociation time was 6 minutes, and regeneration was performed with 50 mM HCl/50 mM NaOH (12 μL each at 100 μL/min).
(In general: In SPR one partner is held on a chip, and binding of the other changes the refractive index at the surface.)

Experiment [6] concerns the target T4, recombinant human GITR/Fc (rHGITR/Fc, …). Description: SPR binning with rHGITR/Fc.
The target in experiment [7] is T1, human GITR, membrane bound (on …). Description: FACS on PHA-activated human CD4+ and CD8+ T cells, anti-HA detection. The source says:
(§2) The samples were acquired on a FACS Canto Flow Cytometer (BD, San Jose) and analyzed with FlowJo software (Tree Star, Inc, Ashland, Oreg.).

For experiment [8] the target is unchanged. Description: FACS; pre-bound GITR-L against 0.5 ug/mL 28F3-hIgG1 (competitor) on activated T cells; partial inhibition.
Source text: as §2
A general note: A flow cytometer gives signals particle by particle.

Changes are numbered by the printed parent chain.

B1: 28F3 (antibody, human IgG2, kappa)
heavy: QVQLVESGGGVVQPGRSLRLSCAASGFTFSSYGMHWVRQAPGKGLEWVAVIWYEGSNKYYADSVKGRFTISRDNSKNTLYLQMNSLRAEDTAVYYCARGGSMVRGDYYYGMDVWGQGTTVTVSSASTKGPSVFPLAPCSRSTSESTAALGCLVKDYFPEPVTVSWNSGALTSGVHTFPAVLQSSGLYSLSSVVTVPSSNFGTQTYTCNVDHKPSNTKVDKTVERKCCVECPPCPAPPVAGPSVFLFPPKPKDTLMISRTPEVTCVVVDVSHEDPEVQFNWYVDGVEVHNAKTKPREEQFNSTFRVVSVLTVVHQDWLNGKEYKCKVSNKGLPAPIEKTISKTKGQPREPQVYTLPPSREEMTKNQVSLTCLVKGFYPSDIAVEWESNGQPENNYKTTPPMLDSDGSFFLYSKLTVDKSRWQQGNVFSCSVMHEALHNHYTQKSLSLSPGK
light: not shown
notes: also called 13H2; 28F3 (IgG2)
For orientation: EC50 means the concentration needed to bring the measured effect to its halfway point. A lower EC50 goes with higher potency in that assay. By Kd is commonly meant the free concentration of one partner at which half of the binding sites on the other are occupied at equilibrium, for simple one-to-one binding. As usually defined, the koff is a measure of how fast the partners let go of each other. The term kon denotes the second-order rate constant of association. Consider B1, for which, in experiment [1], the “NFKB signaling (phospho-p65) EC50, CD4+ T cells” value was 12.8 nM; the “NFKB signaling (phospho-p65) EC50, CD8+ T cells” value stood at 9 nM; the “NFKB signaling (phospho-p65) Emax, CD4+ T cells” value worked out at 69%; the “NFKB signaling (phospho-p65) Emax, CD8+ T cells” value is 85%. For the same molecule, the response in experiment [2] was half-maximal at 1.04 nM (EC50). In addition, the binding result in experiment [3] is recorded as “no binding”. The midpoint of the response in experiment [4], the EC50, lay at 0.192 nM. In experiment [5], the Kd stood at 14.8 nM, the off-rate constant (koff) was 0.00589 s⁻¹ and the kon amounted to 397000 M⁻¹ s⁻¹.

B2: 6G10 (antibody, human IgG2, kappa, V domains shown)
VH: not shown
VL: AIQLTQSPSSLSASVGDRVTITCRASQGISSALAWYQQKPGKAPKLLIYDASSLESGVPSRFSGSGSGTDFTLTISSLQPEDFATYYCQQFNSYPYTFGQGTKLEIKR
notes: Hybridoma-derived human antibody
As to B2, in experiment [5], the Kd was 1.87 nM, the koff worked out at 0.000715 s⁻¹ and the on-rate (kon) came out at 383000 M⁻¹ s⁻¹.

B3: 8A6 (antibody, human IgG2, kappa, V domains shown)
VH: QVQLVESGGGVVQPGRSLRLSCTASGFTFSSYGMQWVRQAPGKGLEWVAVIWYEGSNKYYADSVKGRFTISRENSKNTLYLQMNSLRAEDTAVYYCARGGLMVRGLFYYGMDVWGQGTTVTVSS
VL: B2 VL with L46F
notes: as for B2
Regarding B3, in experiment [6], the binding result was “binds”.

B4: 3C3 (antibody, human IgG1, kappa, V domains shown)
VH: QVQLQQWGAGLLKPSETLSLTCAVYGGSFSGYYWTWIRQPPGKGLEWIGKINHSGNTNYNPSLKSRVTISVDTSKNQFSLKLSSVTAADTAVYYCARLGAFDAFDIWGQGTMVTVSS
VL: B2 VL with A1D, L4M, A32W, G41E, L46S, D50A, E55Q, F91Y
notes: Hybridoma-derived; also called GITR.3; 3C3-1
With B4, the binding result in experiment [2] is reported as “no binding”. The same molecule showed an EC50 in experiment [4] of 0.0492 nM.

B5: 2G6 (antibody, human IgG2, kappa, V domains shown)
VH: QVQLVESGGGVVQPGGSLRLSCAASGFILSDYGMHWVRQAPGKGLEWVTVIWYDGSNKFYVDSVKGRFTISRDNSKNTLYLQMNSLRVEDTAVYYCARGGRLATGHFYYVMDVWGQGTTVTVSS
VL: B2 VL with A1D, L4M, A32W, G41E, L46S, D50A, E55Q, F91Y
notes: as for B2
Take B5: in experiment [5], the Kd worked out at 12 nM, the off-rate (koff) worked out at 0.00147 s⁻¹ and the association rate constant (kon) was 123000 M⁻¹ s⁻¹.

B6: 18E10 (antibody, human IgG2, kappa, V domains shown)
VH: QVQLVESGGGVVQPGRSLRLSCAASGFTFSSYGMHWVRQAPGKGLEWVAVIWYAGSNKYYADSVKGRFTISRDNSKNTLYLQMNSLRAEDTAVYYCARGGRIAVAFYYSMDVWGQGTTVTVSS
VL: B2 VL with A1D, L4M, A32W, G41E, L46S, D50A, E55Q, F91Y
notes: as for B2
With B6, the concentration for a half-maximal effect (EC50) in experiment [2] was found to be 0.913 nM. Further, a half-maximal response in experiment [4] (EC50) required 0.146 nM. In addition, in experiment [5], the Kd amounted to 13.3 nM, the off-rate constant (koff) turned out to be 0.00241 s⁻¹ and the on-rate constant (kon) is 182000 M⁻¹ s⁻¹.

B7: 14E3 (antibody, V domains shown)
VH: B4 VH with T35S, K50E, N58Y, F78L, L98F, A100S, F101N
VL: B2 VL with A1D, L4M, A32W, G41E, L46S, D50A, E55Q, F91Y, Y96P, L104V
notes: as for B2
On to B7, for which the binding result in experiment [6] is on record as “binds”.

B8: 19D3 (antibody, human IgG2, kappa, V domains shown)
VH: B6 VH with M34F, Y59F, R101Q, I102L, A103D, V104Y, A105Y, F106Y, S109V
VL: B2 VL with A1D, L4M, A32W, G41E, L46S, D50A, E55Q, F91Y
notes: as for B2
Consider B8, for which the EC50 in experiment [4] worked out at 0.363 nM. Further, in experiment [5], the Kd was determined as 16.3 nM, the off-rate (koff) amounted to 0.0045 s⁻¹ and the kon came out at 276000 M⁻¹ s⁻¹.

B9: GITR.6.G2.G1f (antibody, human IgG2)
heavy: not shown
VL: AIQLTQSPSSLSASVGDRVTITCRASQGISSALAWYQQKPGKAPKLLIYDASSLESGVPSRFSGSGSGTDFTLTISSLQPEDFATYYCQQFNSYPYTFGQGTKLEIK
Turning to B9, in experiment [1], the “NFKB signaling (phospho-p65) EC50, CD4+ T cells” value is 9 nM; the “NFKB signaling (phospho-p65) EC50, CD8+ T cells” value came to 3.77 nM; the “NFKB signaling (phospho-p65) Emax, CD4+ T cells” value came to 100%; the “NFKB signaling (phospho-p65) Emax, CD8+ T cells” value was found to be 92%.

B10: recombinant human GITR ligand trimer (R&D Systems 6987-GL) (ligand)
chain: LQLETAKEPCMAKFGPLPSKWQMASSEPPCVNKVSDWKLEILQNGLYLIYGQVAPNANYNDVAPFEVRLYKNKDMIQTLTNKSKIQNVGGTYELHVGDTIDLIFNSEHQVLKNNTYWGIILLANPQFIS
notes: Bought soluble trimer, detected through an HA tag; also called rhGITR-L; hGITR-L trimer
As usually defined, the IC50 is the concentration that gives 50% inhibition. The low end stands for inhibition by little substance, the high end for a need for much substance. As for B10, the EC50 in experiment [7] came to 16 ng/mL. In experiment [8], the concentration for half-maximal inhibition (IC50) was 2.4 ng/mL.

The values above are taken from patent publication US20220175921A1 (Bristol-Myers Squibb, published 2022).
